Experimental findings from US20170095512A1, “METHODS OF INDUCING MYELINATION AND MATURATION OF OLIGODENDROCYTES” (KADIMASTEM LTD., priority 2014, published 2017) are described below.

Assay [1] relates to glial progenitor cells derived from human ES cells (Olig2 positive cells). The experiment in a line: hOPC differentiation assay, Olig2 positive cells (immunostaining, high content screening). The note with it: days 21, 28, 35, 42; noggin 100 ng/ml; LDN-193189 62.5 nM and 125 nM. In kind it is cell-based. How it is done: In order to initiate differentiation 20,000 GPCs were seeded in each well of Matrigel coated plates of 96 wells, or on PolyD-Lysine/laminin (PDL/lam)-coated 96 well plates. Cells were grown in GM media for two to three days. Then GM was replaced by differentiation medium without growth factors, (DMEM/F12, 1% B27, 0.5% N2, Vitamin C (Sigma, 50 ug/ml). Differentiation medium was supplemented with the following tested compounds: […] All media were replaced every other day. The oligodendrocyte lineage cells were characterized by the expression of a transcription factor olig2. The rabbit polyclonal AB anti olig2 (Millipore cat AB9610) was added to PFA fixed cells. […] ArrayScan VTI HCS reader system (Cellomis, Thermo-scientific) was used for scanning at least 20 fields for each tested well under 10× objective in both assays (differentiation and myelination). […] For myelination assay, the same morphological parameters were tested and in addition: areas of myelinated axons in pixels (MBP&NF overlap area) and Number of myelinated regions (MBP&NF overlap count) were also analyzed. […] The 4-parameter Hill-Slope curve fittings were generated by GraphPad Prism software using least squares fitting method and EC50 values were calculated. […] Time points used for analysis are 21, 28, 35 and 42 days of differentiation, for each time point 20 fields were analyzed. […]

For assay [2], the system named is hPSC derived oligodendrocytes co-cultured with rodent dorsal root ganglia neurons (MBP+ cells). The experiment in a line: Co-culture myelination assay (human oligodendrocytes with DRG neurons), MBP staining. To be noted: 14 days co-culture; Noggin 50 ng/ml; LDN-193189 125 nM. In kind it is cell-based. The protocol:
ArrayScan VTI HCS reader system (Cellomis, Thermo-scientific) was used for scanning at least 20 fields for each tested well under 10× objective in both assays (differentiation and myelination). Cellomics Neural profiling bio-application was used for processing and analyzing the images. For differentiation assay, the following parameters were tested: number and percentage of O4+ cells, number of processes, processes length and number of branching points. For myelination assay, the same morphological parameters were tested and in addition: areas of myelinated axons in pixels (MBP&NF overlap area) and Number of myelinated regions (MBP&NF overlap count) were also analyzed. Modifications in the Neuro-profiling bio-application were conducted for this specific purpose. T-test analysis was used to compare between treatments. The 4-parameter Hill-Slope curve fittings were generated by GraphPad Prism software using least squares fitting method and EC50 values were calculated. […]
For testing maturation and myelination capacity of the hPSC derived oligodendrocytes, a co-culture system between rodent dorsal root ganglia (DRGs) and hPSCs derived oligodendrocytes was used. The number of MBP+ cells (MBP, a marker of oligodendrocytes' myelin) and Myelin formation (measured by co-localization area between MBP and neurofilament positive neuronal axons) was quantified.

B1: Noggin: the inhibitor of BMP signaling noggin (R&D) (protein, UniProt Q13253 28-232, looked up)
Noggin: QHYLHIRPAPSDNLPLVDLIEHPDPIFDPKEKDLNETLLRSLLGGHYDPGFMATSPPEDRPGGGGGAAGGAEDLAELDQLLRQRPSGAMPSEIKGLEFSEGLAQGKKQRLSKKLRRKLQMWLWSQTFCPVLYAWNDLGSRFWPRYVKVGSCFSKRSCSVPEGMVCKPSKSVHLTVLRWRCQRRGGQRCGWIPIQYPIISECKCSC
Take B1: in assay [1], the “conversion of neural stem cells to Olig2 positive cells” value is recorded as “stimulate the conversion of neural stem cells to Olig2 positive cells”. Also, the Myelin fibers entry in assay [2] is reported as “Myelin fibers are observed”.
